For assay [1], the target named is PHD finger of human BPTF protein (human). The experiment in a line: ITC.
Assay [2] deals with chromodomain of CBX5. Put plainly: ITC. A general note: In ITC the heat of successive injections is recorded.

“H3KC4me3 peptide MLA (methyllysine analog of H3K4me3)” came in with a fold weaker Kd than the native H3K4me3 peptide in assay [1] of 13 fold.

For the substance trimethylated H3 lysine 9 peptide, the fold tighter binding than the H3KC9me3 peptide in assay [2] was 6 fold.

(Values after article PMC5780203.)
